*1 amine or outer side, *2 acyl side, *3 side chain or, on linkers, in order; H or OH if unused. [ ]: non-standard residue; d: D form. 3AzaPhe4AcPip = (S)-3-(6-(4-acetylpiperazin-1-yl)pyridin-3-yl)-2-aminopropanoic acid, CC(=O)N1CCN(c2ccc(C[C@H](N[*:1])C(=O)[*:2])cn2)CC1; Pro(trans-4-NH2) = O=C([C@@H]1C[C@@H](N[*:3])CN1[*:1])[*:2]; Bip(4'-COOH) = N[C@@H](Cc1ccc(-c2ccc(C(=O)O)cc2)cc1)C(=O)O; 1Nal(3S-Me) = C[C@@H](c1cccc2ccccc12)[C@H](N)C(=O)O; Ala(pyrimidin-5-yl) = N[C@@H](Cc1cncnc1)C(=O)O; Phe(4-COOH) = N[C@@H](Cc1ccc(C(=O)O)cc1)C(=O)O; Trp(7-aza) = N[C@@H](Cc1c[nH]c2ncccc12)C(=O)O; h3Pal(5-CN) = N#Cc1cncc(CC[C@H](N)C(=O)O)c1; 1Nal = N[C@@H](Cc1cccc2ccccc12)C(=O)O; Ala(4-THP) = N[C@@H](CC1CCOCC1)C(=O)O; hTyr = N[C@@H](CCc1ccc(O)cc1)C(=O)O; 4Pal = N[C@@H](Cc1ccncc1)C(=O)O; Orn = NCCC[C@H](N)C(=O)O; dNMeA = CN[C@H](C)C(=O)O; Dap = NC[C@H](N)C(=O)O; Aib = CC(C)(N)C(=O)O
B1: SEQ ID NO: 26 (peptide)
peptide: cyclo([Bip(4'-COOH)]W[Phe(4-COOH)]G[Pro(trans-4-NH2)][1Nal(3S-Me)]D[dNMeA]G[Bip(4'-COOH)]KL[dS][hTyr])
SMILES: CC(C)C[C@@H]1NC(=O)[C@H](CCCCN)NC(=O)[C@H](Cc2ccc(-c3ccc(C(=O)O)cc3)cc2)NC(=O)CNC(=O)[C@@H](C)N(C)C(=O)[C@H](CC(=O)O)NC(=O)[C@H]([C@@H](C)c2cccc3ccccc23)NC(=O)[C@@H]2C[C@@H](N)CN2C(=O)CNC(=O)[C@H](Cc2ccc(C(=O)O)cc2)NC(=O)[C@H](Cc2c[nH]c3ccccc23)NC(=O)[C@H](Cc2ccc(-c3ccc(C(=O)O)cc3)cc2)NC(=O)[C@H](CCc2ccc(O)cc2)NC(=O)[C@@H](CO)NC1=O
B2: SEQ ID NO: 20 (peptide)
peptide: cyclo([Bip(4'-COOH)]W[Phe(4-COOH)]G[Pro(trans-4-NH2)][1Nal(3S-Me)]D[dNMeA]G[Bip(4'-COOH)][1Nal][Orn][Aib]G)
SMILES: C[C@@H]1C(=O)NCC(=O)N[C@@H](Cc2ccc(-c3ccc(C(=O)O)cc3)cc2)C(=O)N[C@@H](Cc2cccc3ccccc23)C(=O)N[C@@H](CCCN)C(=O)NC(C)(C)C(=O)NCC(=O)N[C@@H](Cc2ccc(-c3ccc(C(=O)O)cc3)cc2)C(=O)N[C@@H](Cc2c[nH]c3ccccc23)C(=O)N[C@@H](Cc2ccc(C(=O)O)cc2)C(=O)NCC(=O)N2C[C@H](N)C[C@H]2C(=O)N[C@@H]([C@@H](C)c2cccc3ccccc23)C(=O)N[C@@H](CC(=O)O)C(=O)N1C
B3: SEQ ID NO: 29 (peptide)
peptide: cyclo([Bip(4'-COOH)]W[Phe(4-COOH)]G[Pro(trans-4-NH2)][1Nal(3S-Me)]D[dNMeA]G[Bip(4'-COOH)][Trp(7-aza)][Dap][dA][hTyr])
SMILES: C[C@@H]1C(=O)NCC(=O)N[C@@H](Cc2ccc(-c3ccc(C(=O)O)cc3)cc2)C(=O)N[C@@H](Cc2c[nH]c3ncccc23)C(=O)N[C@@H](CN)C(=O)N[C@H](C)C(=O)N[C@@H](CCc2ccc(O)cc2)C(=O)N[C@@H](Cc2ccc(-c3ccc(C(=O)O)cc3)cc2)C(=O)N[C@@H](Cc2c[nH]c3ccccc23)C(=O)N[C@@H](Cc2ccc(C(=O)O)cc2)C(=O)NCC(=O)N2C[C@H](N)C[C@H]2C(=O)N[C@@H]([C@@H](C)c2cccc3ccccc23)C(=O)N[C@@H](CC(=O)O)C(=O)N1C
B4: SEQ ID NO: 21 (peptide)
peptide: cyclo([Bip(4'-COOH)]W[Phe(4-COOH)]G[Pro(trans-4-NH2)][1Nal(3S-Me)]D[dNMeA]G[Bip(4'-COOH)][4Pal][Dap][dA][h3Pal(5-CN)])
SMILES: C[C@@H]1C(=O)NCC(=O)N[C@@H](Cc2ccc(-c3ccc(C(=O)O)cc3)cc2)C(=O)N[C@@H](Cc2ccncc2)C(=O)N[C@@H](CN)C(=O)N[C@H](C)C(=O)N[C@@H](CCc2cncc(C#N)c2)C(=O)N[C@@H](Cc2ccc(-c3ccc(C(=O)O)cc3)cc2)C(=O)N[C@@H](Cc2c[nH]c3ccccc23)C(=O)N[C@@H](Cc2ccc(C(=O)O)cc2)C(=O)NCC(=O)N2C[C@H](N)C[C@H]2C(=O)N[C@@H]([C@@H](C)c2cccc3ccccc23)C(=O)N[C@@H](CC(=O)O)C(=O)N1C
B5: SEQ ID NO: 22 (peptide)
peptide: cyclo([Bip(4'-COOH)]W[Phe(4-COOH)]G[Pro(trans-4-NH2)][1Nal(3S-Me)]D[dNMeA]G[Bip(4'-COOH)][4Pal][Dap][dA][hTyr])
SMILES: C[C@@H]1C(=O)NCC(=O)N[C@@H](Cc2ccc(-c3ccc(C(=O)O)cc3)cc2)C(=O)N[C@@H](Cc2ccncc2)C(=O)N[C@@H](CN)C(=O)N[C@H](C)C(=O)N[C@@H](CCc2ccc(O)cc2)C(=O)N[C@@H](Cc2ccc(-c3ccc(C(=O)O)cc3)cc2)C(=O)N[C@@H](Cc2c[nH]c3ccccc23)C(=O)N[C@@H](Cc2ccc(C(=O)O)cc2)C(=O)NCC(=O)N2C[C@H](N)C[C@H]2C(=O)N[C@@H]([C@@H](C)c2cccc3ccccc23)C(=O)N[C@@H](CC(=O)O)C(=O)N1C
B6: SEQ ID NO: 19 (peptide)
peptide: cyclo([Bip(4'-COOH)]W[Phe(4-COOH)]G[Pro(trans-4-NH2)][1Nal(3S-Me)]D[dNMeA]G[Bip(4'-COOH)][1Nal]L[Aib]G)
SMILES: CC(C)C[C@@H]1NC(=O)[C@H](Cc2cccc3ccccc23)NC(=O)[C@H](Cc2ccc(-c3ccc(C(=O)O)cc3)cc2)NC(=O)CNC(=O)[C@@H](C)N(C)C(=O)[C@H](CC(=O)O)NC(=O)[C@H]([C@@H](C)c2cccc3ccccc23)NC(=O)[C@@H]2C[C@@H](N)CN2C(=O)CNC(=O)[C@H](Cc2ccc(C(=O)O)cc2)NC(=O)[C@H](Cc2c[nH]c3ccccc23)NC(=O)[C@H](Cc2ccc(-c3ccc(C(=O)O)cc3)cc2)NC(=O)CNC(=O)C(C)(C)NC1=O
B7: SEQ ID NO: 27 (peptide)
peptide: cyclo([Bip(4'-COOH)]W[Phe(4-COOH)]G[Pro(trans-4-NH2)][1Nal(3S-Me)]D[dNMeA]G[Bip(4'-COOH)][Ala(pyrimidin-5-yl)][Dap][dA][h3Pal(5-CN)])
SMILES: C[C@@H]1C(=O)NCC(=O)N[C@@H](Cc2ccc(-c3ccc(C(=O)O)cc3)cc2)C(=O)N[C@@H](Cc2cncnc2)C(=O)N[C@@H](CN)C(=O)N[C@H](C)C(=O)N[C@@H](CCc2cncc(C#N)c2)C(=O)N[C@@H](Cc2ccc(-c3ccc(C(=O)O)cc3)cc2)C(=O)N[C@@H](Cc2c[nH]c3ccccc23)C(=O)N[C@@H](Cc2ccc(C(=O)O)cc2)C(=O)NCC(=O)N2C[C@H](N)C[C@H]2C(=O)N[C@@H]([C@@H](C)c2cccc3ccccc23)C(=O)N[C@@H](CC(=O)O)C(=O)N1C
B8: SEQ ID NO: 2 (peptide)
peptide: cyclo([3AzaPhe4AcPip]W[Phe(4-COOH)]G[Pro(trans-4-NH2)][1Nal(3S-Me)]D[dNMeA]G[Bip(4'-COOH)]KL[dA][h3Pal(5-CN)])
SMILES: CC(=O)N1CCN(c2ccc(C[C@@H]3NC(=O)[C@H](CCc4cncc(C#N)c4)NC(=O)[C@@H](C)NC(=O)[C@H](CC(C)C)NC(=O)[C@H](CCCCN)NC(=O)[C@H](Cc4ccc(-c5ccc(C(=O)O)cc5)cc4)NC(=O)CNC(=O)[C@@H](C)N(C)C(=O)[C@H](CC(=O)O)NC(=O)[C@H]([C@@H](C)c4cccc5ccccc45)NC(=O)[C@@H]4C[C@@H](N)CN4C(=O)CNC(=O)[C@H](Cc4ccc(C(=O)O)cc4)NC(=O)[C@H](Cc4c[nH]c5ccccc45)NC3=O)cn2)CC1
B9: SEQ ID NO: 28 (peptide)
peptide: cyclo([Bip(4'-COOH)]W[Phe(4-COOH)]G[Pro(trans-4-NH2)][1Nal(3S-Me)]D[dNMeA]G[Bip(4'-COOH)][Ala(pyrimidin-5-yl)][Dap][dA][hTyr])
SMILES: C[C@@H]1C(=O)NCC(=O)N[C@@H](Cc2ccc(-c3ccc(C(=O)O)cc3)cc2)C(=O)N[C@@H](Cc2cncnc2)C(=O)N[C@@H](CN)C(=O)N[C@H](C)C(=O)N[C@@H](CCc2ccc(O)cc2)C(=O)N[C@@H](Cc2ccc(-c3ccc(C(=O)O)cc3)cc2)C(=O)N[C@@H](Cc2c[nH]c3ccccc23)C(=O)N[C@@H](Cc2ccc(C(=O)O)cc2)C(=O)NCC(=O)N2C[C@H](N)C[C@H]2C(=O)N[C@@H]([C@@H](C)c2cccc3ccccc23)C(=O)N[C@@H](CC(=O)O)C(=O)N1C
B10: SEQ ID NO: 23 (peptide)
peptide: cyclo([Bip(4'-COOH)]W[Phe(4-COOH)]G[Pro(trans-4-NH2)][1Nal(3S-Me)]D[dNMeA]G[Bip(4'-COOH)][Ala(4-THP)][Dap][dA][h3Pal(5-CN)])
SMILES: C[C@@H]1C(=O)NCC(=O)N[C@@H](Cc2ccc(-c3ccc(C(=O)O)cc3)cc2)C(=O)N[C@@H](CC2CCOCC2)C(=O)N[C@@H](CN)C(=O)N[C@H](C)C(=O)N[C@@H](CCc2cncc(C#N)c2)C(=O)N[C@@H](Cc2ccc(-c3ccc(C(=O)O)cc3)cc2)C(=O)N[C@@H](Cc2c[nH]c3ccccc23)C(=O)N[C@@H](Cc2ccc(C(=O)O)cc2)C(=O)NCC(=O)N2C[C@H](N)C[C@H]2C(=O)N[C@@H]([C@@H](C)c2cccc3ccccc23)C(=O)N[C@@H](CC(=O)O)C(=O)N1C
B11: SEQ ID NO: 25 (peptide)
peptide: cyclo([Bip(4'-COOH)]W[Phe(4-COOH)]G[Pro(trans-4-NH2)][1Nal(3S-Me)]D[dNMeA]G[Bip(4'-COOH)]KL[dA][hTyr])
SMILES: CC(C)C[C@@H]1NC(=O)[C@H](CCCCN)NC(=O)[C@H](Cc2ccc(-c3ccc(C(=O)O)cc3)cc2)NC(=O)CNC(=O)[C@@H](C)N(C)C(=O)[C@H](CC(=O)O)NC(=O)[C@H]([C@@H](C)c2cccc3ccccc23)NC(=O)[C@@H]2C[C@@H](N)CN2C(=O)CNC(=O)[C@H](Cc2ccc(C(=O)O)cc2)NC(=O)[C@H](Cc2c[nH]c3ccccc23)NC(=O)[C@H](Cc2ccc(-c3ccc(C(=O)O)cc3)cc2)NC(=O)[C@H](CCc2ccc(O)cc2)NC(=O)[C@@H](C)NC1=O
B12: SEQ ID NO: 24 (peptide)
peptide: cyclo([Bip(4'-COOH)]W[Phe(4-COOH)]G[Pro(trans-4-NH2)][1Nal(3S-Me)]D[dNMeA]G[Bip(4'-COOH)][Ala(4-THP)][Dap][dA][hTyr])
SMILES: C[C@@H]1C(=O)NCC(=O)N[C@@H](Cc2ccc(-c3ccc(C(=O)O)cc3)cc2)C(=O)N[C@@H](CC2CCOCC2)C(=O)N[C@@H](CN)C(=O)N[C@H](C)C(=O)N[C@@H](CCc2ccc(O)cc2)C(=O)N[C@@H](Cc2ccc(-c3ccc(C(=O)O)cc3)cc2)C(=O)N[C@@H](Cc2c[nH]c3ccccc23)C(=O)N[C@@H](Cc2ccc(C(=O)O)cc2)C(=O)NCC(=O)N2C[C@H](N)C[C@H]2C(=O)N[C@@H]([C@@H](C)c2cccc3ccccc23)C(=O)N[C@@H](CC(=O)O)C(=O)N1C

Each binder was assayed against Recombinant human IL-1β (BioLegend 579404) (human, UniProt P01584 117-269) (assay: cell-based or functional assay).
In the case of B1, the “MRC5 IC50” value is reported as 0.0688 nM.
With B2 the “MRC5 IC50” value was 0.44 nM.
In the case of B3, the “MRC5 IC50” value is reported as 0.0205 nM.
With B4 the “MRC5 IC50” value was 0.0234 nM.
In the case of B5, the “MRC5 IC50” value is reported as 0.0325 nM.
In the case of B6, the “MRC5 IC50” value is reported as 0.118 nM.
For B7, the “MRC5 IC50” value was 0.017 nM.
In the case of B8, the “MRC5 IC50” value is reported as 0.0217 nM.
For B9, the “MRC5 IC50” value was 0.0393 nM.
In the case of B10, the “MRC5 IC50” value is reported as 0.0112 nM.
B11 was tested, and the “MRC5 IC50” value was 0.0542 nM.
For B12, the “MRC5 IC50” value was 0.0291 nM.
